Reverse-splicing fitness data for 84 variants are collected here from the RNAGym collection of RNA variant scans (doi:10.1093/molbev/msab373).

First the molecules themselves.
B1: Azoarcus group I ribozyme (parent)
chain: GUGCCUUGCGCCGGGAAACCACGCAAGGGAUGGUGUCAAAUUCGGCGAAACCUAAGCGCCCGCCCGGGCGUAUGGCAACGCCGAGCCAAGCUUCGGCGCCUGCGCCGAUGAAGGUGUAGAGACUAGACGGCACCCACCUAAGGCAAACGCUAUGGUGAAGGCAUAGUCCAGGGAGUGGCGAAAGUCACACAAACCGG

Variants of B1 are the subject of this data set. Description: reverse-splicing fitness (ratio to wild type); higher = more active; in vitro selection; Mg2+ level not given. The method, boiled down:
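An in vitro group I ribozyme library with randomized positions was T7-transcribed and gel-purified. In triplicate, 10 pmol RNA in EPPS pH 7.5 was reacted with 50 pmoles of a 30-nt RNA substrate for 1 h at 37 °C across several added MgCl2 levels (1–48 mM), then stopped with EDTA. Products were reverse transcribed from a substrate-complementary primer, PCR-amplified and sequenced (HiSeq 4000). Fitness is a variant's read proportion after selection over that before, normalised to wild type.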
With C82U A111C A120G C150G C169A U176A, the reverse-splicing fitness stood at 0.0104.
Consider C82U A111C A120G C150G C169A U176C, for which the reverse-splicing fitness is 0.00939.
Regarding C82U A111C A120G C150G C169A U176G, the reverse-splicing fitness was found to be 0.0058.
The figure for C82U A111C A120U A145C C150G U176C is 0.00485; for C82U A111C A120U A145C C150G U176A it is 0.00275; for C82U A111C A120U A145C C150G U176G it is 0.00239.
The figure for C82U A111C A120U A145C C150G C169G U176C is 0.00262; for C82U A111C A120U A145C C150G C169G U176G it is 0.00241.
The figure for C82U A111C A120U A145C C150G C169G U176A is 0.0028; for C82U A111C A120U A145U C150G C169A U176C it is 0.00322; for C82U A111C A120U A145U C150G C169A U176A it is 0.00336.
For C82U A111C A120U A145U C150G C169A U176G, the reverse-splicing fitness is 0.00233.
The figure for C82U A111C A120U A145U C150U C169A is 0.00252.
Consider C82U A111C A120U A145U C150U C169U, for which the reverse-splicing fitness is 0.0037.
The figure for C82U A111C A120U A145U C150U C169G is 0.00301; for C82U A111C A120G C150U C169G it is 0.00848.
The figure for C82U A111C A120G C150U C169U is 0.00841; for C82U A111C A120G C150U C169A it is 0.00877; for C82U A111C A145C C150A C169G U176G it is 0.00743.
The figure for C82U A111C A145C C150A C169G U176A is 0.024.
As to C82U A111C A145C C150A C169G U176C, the reverse-splicing fitness is 0.0205.
The figure for C82U A111C A120U A145C C150U C169G U176G is 0.00216; for C82U A111C A120U A145C C150U C169G U176A it is 0.003.
The figure for C82U A111C A120U A145C C150U C169G U176C is 0.00273; for C82U A111C A120U A145U C169A U176A it is 0.00299; for C82U A111C A120U A145U C169A U176G it is 0.00168.
The figure for C82U A111C A120U A145U C169A U176C is 0.00251.
In the case of C82U A111C A120U A145C C150U C169A, the reverse-splicing fitness was 0.00253.
On to C82U A111C A120U A145C C150U C169G, for which the reverse-splicing fitness turned out to be 0.00293.
In the case of C82U A111C A120U A145C C150U C169U, the reverse-splicing fitness amounted to 0.00319.
The figure for C82U A111C A120U A145U C150G U176C is 0.00509; for C82U A111C A120U A145U C150G U176A it is 0.00354.
The figure for C82U A111C A120U A145U C150G U176G is 0.00316; for C82U A111C A120G C150A C169U U176C it is 0.0146.
The figure for C82U A111C A120G C150A C169U U176A is 0.0192; for C82U A111C A120G C150A C169U U176G it is 0.00544.
Consider C82U A111C A120U A145C C150A C169U U176G, for which the reverse-splicing fitness was found to be 0.00207.
For the variant C82U A111C A120U A145C C150A C169U U176A, the reverse-splicing fitness stood at 0.00323.
The figure for C82U A111C A120U A145C C150A C169U U176C is 0.00249; for C82U A111C A120U A145C C169U U176G it is 0.00205; for C82U A111C A120U A145C C169U U176C it is 0.00263.
The figure for C82U A111C A120U A145C C169U U176A is 0.00335; for C82U A111C A120U A145G C150A C169A U176C it is 0.00409; for C82U A111C A120U A145G C150A C169A U176G it is 0.00278.
As for C82U A111C A120U A145G C150A C169A U176A, the reverse-splicing fitness was found to be 0.00664.
The figure for C82U A111C A120U A145G C150U C169U U176C is 0.00415.
For C82U A111C A120U A145G C150U C169U U176A, the reverse-splicing fitness came out at 0.00522.
Consider C82U A111C A120U A145G C150U C169U U176G, for which the reverse-splicing fitness was 0.00271.
The figure for C82U A111C A120U A145U C169G U176A is 0.00259.
C82U A111C A120U A145U C169G U176C: the reverse-splicing fitness is 0.00286.
The figure for C82U A111C A120U A145U C169G U176G is 0.00187; for C82U A111C A120U A145G C169A U176G it is 0.00196.
The figure for C82U A111C A120U A145G C169A U176A is 0.00295; for C82U A111C A120U A145G C169A U176C it is 0.0035; for C82U A111C A120U A145C C169A U176G it is 0.0017.
Take C82U A111C A120U A145C C169A U176A: the reverse-splicing fitness came out at 0.00241.
The figure for C82U A111C A120U A145C C169A U176C is 0.00244; for C82U A111C A120U C169A U176G it is 0.00185; for C82U A111C A120U C169A U176A it is 0.00309.
Regarding C82U A111C A120U C169A U176C, the reverse-splicing fitness came to 0.00352.
The figure for C82U A111C A120U A145G C169U U176C is 0.00342; for C82U A111C A120U A145G C169U U176G it is 0.00206.
Consider C82U A111C A120U A145G C169U U176A, for which the reverse-splicing fitness worked out at 0.00527.
The figure for C82U A111C A120U A145U C150A C169A U176C is 0.00253; for C82U A111C A120U A145U C150A C169A U176G it is 0.00255.
The figure for C82U A111C A120U A145U C150A C169A U176A is 0.00217.
The figure for C82U A111C A120G C150A C169A is 0.0101; for C82U A111C A120G C150A C169U it is 0.00789; for C82U A111C A120G C150A C169G it is 0.00808.
Consider C82U A111C A120U A145U C150U C169U U176G, for which the reverse-splicing fitness turned out to be 0.00223.
The figure for C82U A111C A120U A145U C150U C169U U176C is 0.003; for C82U A111C A120U A145U C150U C169U U176A it is 0.00267; for C82U A111C A120U A145G C150U C169A U176A it is 0.00691.
The figure for C82U A111C A120U A145G C150U C169A U176G is 0.00262; for C82U A111C A120U A145G C150U C169A U176C it is 0.00367; for C82U A111C A120U A145U C150A C169U U176C it is 0.00256.
As to C82U A111C A120U A145U C150A C169U U176A, the reverse-splicing fitness was 0.00365.
The figure for C82U A111C A120U A145U C150A C169U U176G is 0.00245; for C82U A111C A120U C150U C169G U176C it is 0.00314; for C82U A111C A120U C150U C169G U176G it is 0.00228.
The figure for C82U A111C A120U C150U C169G U176A is 0.00387; for C82U A111C A120U U176A it is 0.00719; for C82U A111C A120U U176G it is 0.00301.
The figure for C82U A111C A120U U176C is 0.0103.
